Laboratory results taken from the supplement of paper PMC12042874.
± gives the uncertainty stated by the source.

Experiment: amyloid nucleation score (Sup35N fusion, yeast selection) (log enrichment); library NNK2; higher = more nucleation; inactive = no reads after selection
Outline: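 Sup35N was fused to peptides of 20 random codons and expressed in psi-negative yeast, which were induced with 100 μM copper sulfate for 24 hours and then grown on medium lacking adenine and uracil for 7 days at 30°C. Plasmid inserts from input and output were sequenced on Illumina. The nucleation score is the DiMSum log enrichment of output over input reads, centred on the mode score of non-aggregating sequences. Sequences with under 100 input reads were left out, and random libraries had three technical output replicates.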

Row | Substance | amyloid nucleation score
1 | TSYTLDYCGISMLKYFNSVD | 7.188 ± 0.062
2 | FYITRLVHFNLIYEGLGFLR | 1.05 ± 0.23
3 | DSWLGRMTRDKGNASFRSAS | 1.16 ± 0.46
4 | TSVLA | -1 ± 1.1
5 | SNLNPVHSDLLMYEMPCNLT | -0.492 ± 1.1
6 | LVVLNYGVIHNMNSWPWRWG | 9.861 ± 0.047
7 | DIDKGSTEGDVMEGKLVNNV | 0.171 ± 0.2
8 | KCLCAGFLF | -0.577 ± 0.38
9 | FRWGFVSPDRSIGDVFLQLC | -0.137 ± 1.1
10 | TYMDNFFVSCGMLKQVYASV | -0.223 ± 0.16
11 | LVRPILLYYSMLV | inactive
12 | DWHYIEKWT | -0.12 ± 0.49
13 | YRVSIMYDAWDGLARWFYRR | 0.507 ± 0.46
14 | NWLQGVYCCGKVIGSLTSTD | 8.775 ± 0.043
15 | YQVFSQLEMRTYCKGKDFTL | 4.724 ± 0.038
16 | YVLELKG | 2.75 ± 0.062
17 | LGYRRSCEQGWGMLLGNYSH | inactive
18 | GLRSIGLGVQSFRSYQFSRI | -0.415 ± 0.45
19 | CYSVFSLY | -0.81 ± 1
20 | FWRAFMLHWGNFLLMRALHE | inactive
21 | FTLWFQTLARGGMLARNLFK | -1.17 ± 0.75
22 | HPLVLWSIELCMMFFNSLTD | -0.565 ± 0.48
23 | YAGTH | -1.72 ± 0.48
24 | GSSKFPDFSISLMYELFDI | -0.91 ± 1.1
25 | HHVEGMGYFLS | 0.175 ± 0.25

Row | Substance | amyloid nucleation score
26 | GCSWEITDVHGGRLKLAMDP | 1.12 ± 0.32
27 | NCYFKLSYEDMIRQCKRLNE | 3.44 ± 0.069
28 | SVYRGASKVSRCRNVKTGR | 0.132 ± 0.32
29 | RMVTVAS | 1.68 ± 0.32
30 | PSDFYWSMFEQYCHGV | 4.51 ± 0.05
31 | RTLFV | -0.146 ± 0.63
32 | IMSSV | inactive
33 | VSCAESVGIYINYWFLNCQE | 8.702 ± 0.03
34 | FGKAF | -0.375 ± 0.79
35 | IRWSVGSGKIRGSFLLLMDL | -0.432 ± 1.1
36 | ALDSNSWPYDGGMWRTT | -0.232 ± 1.1
37 | MYYLNSFGRELLSGLKCYKT | -0.698 ± 0.5
38 | DIYFGDQNDCLKR | -1.17 ± 0.64
39 | YYFNEREK | inactive
40 | RSLSA | 1.02 ± 0.34
41 | EALMMVYGWEKTD | 0.733 ± 0.24
42 | RSFLWVFRKYRGW | 0.783 ± 0.66
43 | HKWKII | -1.55 ± 0.75
44 | IVGSDGGNIFTRLGCSAYRE | -1.14 ± 0.35
45 | LSKGTPSQSMMSSLLSINTL | -0.159 ± 1
46 | PHPIDNKRMTTPNIADAPPR | 0.56 ± 0.74
47 | LINLVWTDEITMSDYMKRSG | 0.858 ± 0.17
48 | SLNFFIMSKSSTGVSSFLYV | 6.483 ± 0.038
49 | MPPHSVSVITNSHF | inactive
50 | ESTAWAQVIPDNRLCGRNCR | -0.153 ± 1.1

Row | Substance | amyloid nucleation score
51 | WRDTC | -0.086 ± 0.49
52 | LNMTSFAVKLEANYL | -0.565 ± 1.1
53 | GRCTGLLCLALVVIYQ | 0.358 ± 0.39
54 | FILPRLIFAGQLSCGFARGV | -1.17 ± 0.76
55 | MFNYINYYSYHFEFSKCFVR | 2.26 ± 0.14
56 | RNAQPLNGPRSPVSGTDWYS | 0.092 ± 1.1
57 | LPGMNTIILD | 2.17 ± 0.081
58 | IHLKLRRYLDNYYLNATNCG | -0.509 ± 0.31
59 | CNKESFSMI | -0.791 ± 0.55
60 | GCGCATGREDTPGNIGWMV | 0.507 ± 0.25
61 | LCWLIVGKCGKGKTYDGFIG | -0.78 ± 1.1
62 | NIFMLTLGCGCQAFCSVIMT | 1.44 ± 0.17
63 | VLRSVRIFLDN | 1.3 ± 0.15
64 | IVDGVYEFKC | -0.779 ± 0.32
65 | YSDMSFAVALAVSWVQAGAW | -0.618 ± 0.63
66 | TDIKNRHILSNPWIRLYFLI | -1.16 ± 0.62
67 | FHVIGRR | 0.951 ± 0.58
68 | HGYSVFYAVYAEGEMNIINA | -0.172 ± 1.1
69 | HCSQNYMVTRKIFSLWIPYV | inactive
70 | RVNTLLHILMYFNCLSGVEL | 4.88 ± 0.049
71 | SWHFKSKHSCVFFRCEYVVS | -0.373 ± 1
72 | ICIHYANNLLVNMRTKMCHK | 9.369 ± 0.054
73 | LCIGYFLV | -1.62 ± 1.1
74 | NLDEQGFAVSWETVLLWSEE | -0.005 ± 0.5
75 | TNGCALRSLNWLIVS | -0.44 ± 0.31

Row | Substance | amyloid nucleation score
76 | PVALLAIRMNIDVVN | -0.353 ± 0.49
77 | VTMKHVAGSSHDCPYAILTN | 0.082 ± 1
78 | LPVREALMRKWMVQLLVFVS | 2.05 ± 0.1
79 | LVKCHANGCFPYLSTIFIRP | 0.156 ± 0.41
80 | AMMFDVFRYLRESVISMCKG | 0.367 ± 0.54
81 | DRSSMTG | 0.698 ± 0.21
82 | LIPHSTSHRGFKLYSRVFYP | -0.047 ± 1.1
83 | GLGRKYNMRRRLKLVFWRSD | 4.23 ± 0.084
84 | LDAERM | 0.306 ± 0.23
85 | RSGWVEPSNITVIWVKMLVQ | 0.166 ± 0.55
86 | RLAVVLVPRIGYSSKSSETR | 1.11 ± 0.34
87 | GMVFRRWREMYSSFVDRTLR | 0.799 ± 0.51
88 | SLATSAWVVYLWFVVRDIVV | 0.388 ± 0.33
89 | QSESVVRHWGMRWR | 0.729 ± 0.29
90 | SVFCRKLTLVAGGDARRDCK | 0.497 ± 0.57
91 | CMISTDLKVTRALSTHKNCI | 0.02 ± 0.56
92 | KVPMICSMEWRPLVSSHCTR | -0.718 ± 0.76
93 | YNGPLHYDRNDSSVKQSVFI | inactive
94 | VLIFMIKVWARITLMGYSRL | -0.666 ± 0.3
95 | SGVKLYRLRRLCLFSRGKFA | 4.09 ± 0.12
96 | FRVIYDRHTGILRSHERAKG | -0.551 ± 0.35
97 | VSNAGSSTKDILGIHRS | -0.06 ± 1.1
98 | YWVYAGIGVRMCNRVYNNLR | 0.336 ± 0.3
99 | AIDAFFLSV | -0.191 ± 0.26
100 | KSHLVF | -0.312 ± 0.65

Row | Substance | amyloid nucleation score
101 | VVHDNW | 0.29 ± 0.22
102 | KYFMVVLVNIIFLYPGL | inactive
103 | PNWPR | 0.512 ± 0.66
104 | ILLLFVPSDFRNICFE | -0.532 ± 0.29
105 | GDWSYGMGFNMVAMRNWEYL | -0.512 ± 0.63
106 | GKLHIRIWQDSVWLGDLRL | 3.82 ± 0.063
107 | GDPDQVYSFR | 0.034 ± 1.1
108 | GRRYSRTVEFVTF | 0.692 ± 0.29
109 | ADRYMHSTHVDNCPYAGFTS | 0.444 ± 0.44
110 | VKSTYAYPPNVVDPHIGWGH | 0.99 ± 0.24
111 | IVIGRQCPTWFDVARYR | 1.07 ± 0.34
112 | DTVYAF | -0.651 ± 1.1
113 | VSPNPIWIVEKWPI | -1.63 ± 0.62
114 | LYLWWILIYDHMAPKEW | -0.47 ± 0.63
115 | SYVMFSIMEH | 0.354 ± 0.65
116 | DYIEKGFPGLPYHSCGSSTF | inactive
117 | GVVARSIVAGNLALIIRRRM | 0.253 ± 0.42
118 | FSCSLQRIGEMSRDKSYTPA | 0.503 ± 0.66
119 | YQLLLFV | -0.969 ± 0.41
120 | VEAIWHWVCYWSGMWSLGPG | 3.69 ± 0.057
121 | DDLSMRVVRLRNVTLYHYFG | 3.21 ± 0.088
122 | GMKSIDVL | -1.21 ± 0.36
123 | WKIDWTNVNPFVRPVGTTNG | 0.917 ± 0.33
124 | MDVMVDW | -0.343 ± 0.63
125 | FCCTLAIFSL | 7.594 ± 0.024

Row | Substance | amyloid nucleation score
126 | SCDIKCWCQ | 3.41 ± 0.079
127 | RLPHSVSALSLKILGGARAR | 0.02 ± 0.56
128 | FCLFFLASQIIVMGVTTYTG | -0.313 ± 0.76
129 | TTGRKFMMIVTGGCGESGRF | -0.77 ± 0.42
130 | DLRLTSHIRSFIFAGVPVLF | -1.65 ± 0.49
131 | NRPLCSFDTEFDLYEQIHLR | 4.38 ± 0.086
132 | LQSSKVWDFMLGLGVSGRVE | 1.55 ± 0.14
133 | DDIFIRKLFQYS | inactive
134 | LTIPEMNQGLQLSLSIHAQM | -0.902 ± 0.63
135 | LGLAVKSRTPDLTGGPRASE | 1.68 ± 0.18
136 | DSSLNIGVLPIVTNGLTKCD | -0.29 ± 0.28
137 | RYGVRTSAPNMQWLFAGWS | 0.613 ± 0.74
138 | MDHCTFYIRGMMPRMYGCTK | -0.711 ± 0.44
139 | IISENAYCLPMIMT | -0.437 ± 0.54
140 | SEFYIRLQYNNVVIVDLFEV | -0.701 ± 0.63
141 | HQYGLNIKCFKCAILSKSGT | -0.562 ± 1
142 | HDLKLV | 0.266 ± 0.41
143 | ADGFVSSIVLT | 0.006 ± 0.24
144 | TRPVNLDLIFISSG | 2.92 ± 0.098
145 | FGLRIKPGEKV | 0.783 ± 0.74
146 | VLKCGHKYLVIDSWKL | 1.78 ± 0.092
147 | LHQRLV | 0.195 ± 0.27
148 | DQLVLELHWTESILSYVVMP | 0.816 ± 0.48
149 | HTVLPWYTIRYKWEGVGLTD | 0.403 ± 0.45
150 | WTKATPH | 0.12 ± 0.29

Row | Substance | amyloid nucleation score
151 | WFDWLVYSGLDHGRFIEVLK | -0.432 ± 0.74
152 | PDWMRGSSEYWSVGPRYCNS | 0.355 ± 0.13
153 | IPITSGIRRNCSSVRKDLGC | 0.123 ± 0.39
154 | IDILTVICVPEIYNWFLMQY | -0.842 ± 0.35
155 | YYLPLGYDWPWSYSKCSNTR | 4.04 ± 0.072
156 | QQKPVLGLCFWERAGHLSNR | inactive
157 | LAMMELYVSRETGLWYM | -0.503 ± 0.32
158 | CLVKCAMPILVINICAG | 7.82 ± 0.061
159 | QNGAALRLIGIWGNGGCK | -0.003 ± 1.1
160 | QDFCSEGCLEDVSSLY | -1.37 ± 0.49
161 | KCLSRNPHSIDFMRNARYKD | -0.92 ± 0.33
162 | FLICGHCWGPNTYYNTSVLM | 7.8 ± 0.061
163 | CIQTSSREVSFRSIATDGST | 4.27 ± 0.047
164 | LGHILV | inactive
165 | MKFKYTNHVYRIDCRSAT | 0.551 ± 0.38
166 | VDGVSLSGEFFNTIVNNFCI | 6.08 ± 0.062
167 | FVMNGPLWMTLANMSMNHNL | 4.21 ± 0.06
168 | MNIFKYFQSSSETMLTLKCT | -0.724 ± 1
169 | VGGVIYAYGFVFF | 7.381 ± 0.029
170 | KCGSTFPLDLLYMSY | -1.16 ± 0.49
171 | SREVFDVLGKFFCSPQDRVV | 0.294 ± 0.8
172 | SRDVLVLIGYFSCGVIDSAL | 5.16 ± 0.082
173 | KRDPLFRVLGT | 0.071 ± 0.79
174 | NVGYWYCLD | 8.808 ± 0.033
